By Ki is commonly meant a dissociation constant, usually derived from enzyme kinetics or from competition with a known ligand.

The record followed here is patent publication US20140037642A1, “METHODS AND COMPOSITIONS RELATING TO INHIBITION OF IGF-1R” (AMGEN INC., priority 2011, published 2014).

The target in test [1] is hu IGF-1R(ECD)-C3-muIgG1Fc (human; mouse). The test is described as follows: ORIGEN competition with 1 nM Ru-IGF-1 for IGF-1R(ECD)-C3-muFc on beads.
The target is the same in test [2]. The test is described as follows: ORIGEN competition with 2 nM Ru-IGF-2 for IGF-1R(ECD)-C3-muFc on beads.

In the case of “murine anti-IGF-1R antibody 1H7 (Santa Cruz Biotechnology)”, the Ki is 16 nM in test [1] and 13.1 nM in test [2]. The Max (%), maximum level of inhibition at 1 µM antibody in test [1] amounted to 89%; in test [2], 99%.
In test [1], “murine anti-IGF-1R antibody αIR3 (Calbiochem)” gave an inhibition constant Ki of 5.3 nM and a Max (%), maximum level of inhibition at 1 µM antibody of 91%.
